The text below walks through data of publication doi:10.1101/2025.03.28.645892 (2025).

Assay [1] deals with T1, Arabidopsis thaliana UFD1B (Arabidopsis thaliana, UniProt Q9SJV0 1-340).
T1 chain: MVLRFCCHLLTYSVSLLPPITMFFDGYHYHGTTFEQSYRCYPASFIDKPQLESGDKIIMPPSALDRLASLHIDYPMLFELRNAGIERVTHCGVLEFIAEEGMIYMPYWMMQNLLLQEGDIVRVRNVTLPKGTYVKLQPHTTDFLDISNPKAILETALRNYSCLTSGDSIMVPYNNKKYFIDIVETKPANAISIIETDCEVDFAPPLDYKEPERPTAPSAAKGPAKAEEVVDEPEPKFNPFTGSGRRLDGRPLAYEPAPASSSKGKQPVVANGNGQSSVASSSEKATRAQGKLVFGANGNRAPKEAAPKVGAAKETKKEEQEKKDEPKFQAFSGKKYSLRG
As to the kind of experiment: ITC; AMPPNP; AtCDC48A saturated with AtNPL4.

Assay [2] concerns the target T1, Arabidopsis thaliana UFD1B. Briefly: MST; pH 6.5; AMPPNP.
Assay [3] concerns the target T1, Arabidopsis thaliana UFD1B. As to the kind of experiment: MST; pH 7.5; AMPPNP.
In the next assay the target is T2, AtNPL4B F105A (Arabidopsis thaliana, UniProt Q9LYC2 1-413, F105A).
T2 sequence: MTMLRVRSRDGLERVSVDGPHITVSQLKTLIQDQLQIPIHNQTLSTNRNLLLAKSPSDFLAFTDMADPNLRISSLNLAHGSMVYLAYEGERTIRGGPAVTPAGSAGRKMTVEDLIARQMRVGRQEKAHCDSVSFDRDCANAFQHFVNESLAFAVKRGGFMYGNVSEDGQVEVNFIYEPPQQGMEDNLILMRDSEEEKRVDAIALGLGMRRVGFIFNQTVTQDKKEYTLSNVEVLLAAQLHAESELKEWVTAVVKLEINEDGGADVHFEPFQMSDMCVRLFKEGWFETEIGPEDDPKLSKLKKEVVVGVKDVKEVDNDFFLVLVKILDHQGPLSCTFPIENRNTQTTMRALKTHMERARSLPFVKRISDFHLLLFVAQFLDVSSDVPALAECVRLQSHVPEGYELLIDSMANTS
Briefly: ITC; AMPPNP.

The next assay has as its target T3, AtNPL4B UBXL domain (Arabidopsis thaliana, UniProt Q9LYC2 1-89).
T3 chain: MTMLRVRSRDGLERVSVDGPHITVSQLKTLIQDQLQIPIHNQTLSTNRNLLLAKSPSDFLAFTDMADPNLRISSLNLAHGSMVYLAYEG
As to the kind of experiment: ITC; AMPPNP.

Assay [4] concerns the target T1, Arabidopsis thaliana UFD1B. As to the kind of experiment: MST; pH 7.5.
Assay [5] deals with T1, Arabidopsis thaliana UFD1B. Briefly: MST; pH 6.5.

B1: AtCDC48A saturated with AtNPL4 (complex)
chain 1: MSTPAESSDSKSKKDFSTAILERKKSPNRLVVDEAINDDNSVVSLHPATMEKLQLFRGDTILIKGKKRKDTVCIALADETCEEPKIRMNKVVRSNLRVRLGDVISVHQCPDVKYGKRVHILPVDDTVEGVTGNLFDAYLKPYFLEAYRPVRKGDLFLVRGGMRSVEFKVIETDPAEYCVVAPDTEIFCEGEPVKREDEERLDDVGYDDVGGVRKQMAQIRELVELPLRHPQLFKSIGVKPPKGILLYGPPGSGKTLIARAVANETGAFFFCINGPEIMSKLAGESESNLRKAFEEAEKNAPSIIFIDEIDSIAPKREKTNGEVERRIVSQLLTLMDGLKSRAHVIVMGATNRPNSIDPALRRFGRFDREIDIGVPDEIGRLEVLRIHTKNMKLAEDVDLERISKDTHGYVGADLAALCTEAALQCIREKMDVIDLEDDSIDAEILNSMAVTNEHFHTALGNSNPSALRETVVEVPNVSWNDIGGLENVKRELQETVQYPVEHPEKFEKFGMSPSKGVLFYGPPGCGKTLLAKAIANECQANFISVKGPELLTMWFGESEANVREIFDKARQSAPCVLFFDELDSIATQRGGGSGGDGGGAADRVLNQLLTEMDGMNAKKTVFIIGATNRPDIIDSALLRPGRLDQLIYIPLPDEDSRLNIFKAALRKSPIAKDVDIGALAKYTQGFSGADITEICQRACKYAIRENIEKDIEKEKRRSENPEAMEEDGVDEVSEIKAAHFEESMKYARRSVSDADIRKYQAFAQTLQQSRGFGSEFRFENSAGSGATTGVADPFATSAAAAGDDDDLYN
chain 2: MMMLRIRSRDGLERVTAEGAHITVSQLKTLIADQLQIPLHKQTLSTNRDLLLAKTPADLLAFTDLTDPNLPLSSLNLGHGSMLYLAYDGERSIPGAPPVTPAGSFGRKMTVDDLIARQMRVTRQETSHCDSVSFDRDAANAFQHYVNESLAFAVKRGGFMYGTVTEEGQVEVDFIYEPPQQGTEANLILMRDADEEKRVDAIAMGLGMRRVGFIFNQTVVQDKTEYTLSNAEVLQAAELHAESELKEWVTAVVKLEVNEDGGADVHFEAFQMSDMCIRLFKEEWFETEIMPDDDPKLSKMKKEVVVGVKDLKEVDNDFFLVLVRILDHQGPLSSTFPIENRSSRATMRALKTHLDRAKSLPLVKKMSDFHLLLFVAQFLDVSSDVPALAECVRLQSPVPEGYALLIESMANTC
modifications: Alexa-488 dye label in the MST experiments only
In the case of B1, the results for the Kd in assay [1], in assay [2] and in assay [3] were 3.8 µM, 2.9 µM and 4.6 µM, respectively.

B2: Arabidopsis thaliana CDC48A (enzyme)
chain: B1 chain 1
Take B2: the Kd was found to be 4.6 µM in the assay with AtNPL4B F105A and 3.2 µM with AtNPL4B UBXL domain.

B3: Arabidopsis thaliana NPL4 (natural protein)
chain: B1 chain 2
modifications: Alexa-488 dye label in the MST experiments only
In the case of B3, the Kd turned out to be 256 µM in assay [4] and 75.4 µM in assay [5].
